# Patent US20090291081A1 (AbbVie / Abbott, published 2009)
# Values joined by “and” are separate entries in the source; they are usually repeats but may differ in a detail not shown here. Equal entries are not always repeated. Where two headings read alike, the source gives them in different places.
# T1: human IL-1α (human, UniProt P01583 113-271)
# T1 sequence (looked up): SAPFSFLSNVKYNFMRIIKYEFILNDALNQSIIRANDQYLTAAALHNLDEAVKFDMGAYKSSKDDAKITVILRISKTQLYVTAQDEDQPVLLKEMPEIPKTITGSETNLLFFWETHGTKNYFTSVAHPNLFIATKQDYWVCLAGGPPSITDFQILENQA
# Legend:
# human IL-1α [1] = molecular target: T1, human IL-1α; test: cell-based or functional assay
# human IL-1α [2] = molecular target: T1, human IL-1α; test: BIAcore kinetic analysis of the dAb
# human IL-1α [3] = molecular target: T1, human IL-1α; test: BIAcore, IL-1α coated chip, dAb flowed over
# human IL-1α [4] = molecular target: T1, human IL-1α; test: BIAcore kinetic analysis of the dAb; remark: listed apart in the source
# human IL-1α [5] = molecular target: T1, human IL-1α; test: cell-based or functional assay; remark: listed apart in the source
# human IL-1α [6] = molecular target: T1, human IL-1α; test: cell-based or functional assay; remark: listed apart in the source
# human IL-1α [7] = molecular target: T1, human IL-1α; test: BIAcore kinetic analysis of the dAb; remark: listed apart in the source
# human IL-1α [8] = molecular target: T1, human IL-1α; test: method not given
# human IL-1α [9] = molecular target: T1, human IL-1α; test: BIAcore kinetic analysis of the dAb; remark: listed apart in the source
# human IL-1α [10] = molecular target: T1, human IL-1α; test: cell-based or functional assay; remark: listed apart in the source
# human IL-1β [11] = molecular target: T2, human IL-1β (human, UniProt P01584 117-269); test: cell-based or functional assay
# human IL-1α [12] = molecular target: T1, human IL-1α; test: cell-based or functional assay; remark: listed apart in the source
# human IL-1α [13] = molecular target: T1, human IL-1α; test: cell-based or functional assay; remark: listed apart in the source
# human IL-1β [14] = molecular target: T2, human IL-1β; test: cell-based or functional assay; remark: listed apart in the source
# human IL-1β [15] = molecular target: T2, human IL-1β; test: Receptor Binding Assay, IgG; value beside the ABT2 clone
# human IL-1α [16] = molecular target: T1, human IL-1α; test: Receptor Binding Assay, IgG; value beside the ABT1 clone
# human IL-1β [17] = molecular target: T2, human IL-1β; test: cell-based or functional assay; remark: listed apart in the source
# human IL-1α [18] = molecular target: T1, human IL-1α; test: BIAcore kinetic analysis of the dAb; remark: listed apart in the source
# human IL-1α [19] = molecular target: T1, human IL-1α; test: BIAcore kinetic analysis of the dAb; remark: listed apart in the source
binder,measurement,setting,value
"ABT1-122 (other, dAb, Vκ, to IL-1α) VL: DIQMTQSPSSLSASVGDRVTITCRASQPIWTELNWYQQKPGKAPKLLIYGSSSLQSGVPSRFSGSGSGTDFTLTISSLQPEDFATYYCQQFAYFPATFGQGTKVEIKR",MRC5 ND10,human IL-1α [1],9 nM
same,MRC5 ND50,human IL-1α [1],50 nM
same,Kd,human IL-1α [2],42 nM
same,koff,human IL-1α [2],0.28 s⁻¹
same,kon,human IL-1α [2],6.6e+06 M⁻¹ s⁻¹
same,Kd,human IL-1α [3],40 to 86 nM
"ABT1-96 (other, dAb, VH, to IL-1α; also called dAb ABT1-96) VH: EVQLLESGGGLVQPGGSLRLSCAASGFTFNQYNMFWVRQAPGKGLEWVSVISGSGRFTYYADSVKGRFTISRDNSKNTLYLQMNSLRAEDTAVYYCAKGWWRRDPPFDYWGQGTLVTVSS",MRC5 ND10,human IL-1α [1],3 nM
same,MRC5 ND50,human IL-1α [1],11 nM
same,Kd,human IL-1α [4],1.1 nM
same,koff,human IL-1α [4],0.00039 s⁻¹
same,kon,human IL-1α [4],370000 M⁻¹ s⁻¹
ABT1-141-25 (other) VL: DIQMTQSPSSLSASVGDRVTITCRASQWIQKQLAWYQQKPGKAPKLLIYSSSYLQSGVPSRFSGSGSGTDFTLTISSLQPEDFATYYCQQHLRVPMTFGQGTKVEIKR,MRC5 ND50,human IL-1α [5],5 nM
ABT1-141-47 (other) VL: DIQMTQSPSSLSASVGDRVTITCRANQWIQKQLAWYQQKPGKAPKLLIYSSSHLQSGVPSRFSGSGSGTDFTLTISSLQPQDFATYYCQQHLRVPMTFGQGTKVEIKR,MRC5 ND50,human IL-1α [5],1 nM
ABT1-141-76 (other) VL: DIQMTQSPSSLSASVGDRVTITCRANQWIQKQLAWYQQKPGKAPKLLIYSSSHLQSGVPSRFSGSGSGTDFTLTISSLQPEDFATYYCQQHLRVPMTFGQGTKVEIKR,MRC5 ND50,human IL-1α [5],1 nM
"ABT1-6-23 (other, dAb, VH, to IL-1α; also called dAb ABT1-6-23) VH: EVQLLESGGGLVQPGGSLRLSCAASGFTFVRYDMAWVRQAPGKGLEWVSSIYKSGALTSYADSVKGRFTISRDNSKNTLYLQMNSLRAEDTAVYYCAKGWASFDYWGQGTLVTVSS",MRC5 ND10,human IL-1α [1],3 nM
same,MRC5 ND50,human IL-1α [1],30 nM
same,MRC5 ND50,human IL-1α [6],0.03 µM
same,Kd,human IL-1α [7],61 nM
same,koff,human IL-1α [7],0.012 s⁻¹
same,kon,human IL-1α [7],200000 M⁻¹ s⁻¹
ABT1-6-3 (other) VH: EVQLLESGGGLVQPGGSLRLSCAASGFTFGAYDMQWVRQAPGKGLEWVSSIYKSGALTSYADSVKGRFTISRDNSKNTLYLQMNSLRAEDTAVYYCAKGWASFDYWGQGTLVTVSS,MRC5 ND50,human IL-1α [6],0.08 µM
ABT1-6-15 (other) VH: EVQLLESGGGLVQPGGSLRLSCAASGFTFVRYDMAWVRQAPGKGLEWVSSINKSGALTSYADSVKGRFTISRDNSKNTLYLQMNSLRAEDTAVYYCAKGWASFDYWGQGTLVTVSS,MRC5 ND50,human IL-1α [6],2 µM
ABT1-6 (other) VH: EVQLLESGGGLVQPGGSLRLSCAASGFTFGAYDMQWVRQAPGKGLEWVSSINKSGALTSYADSVKGRFTISRDNSKNTLYLQMNSLRAEDTAVYYCAKGWASFDYWGQGTLVTVSS,MRC5 ND50,human IL-1α [6],15 µM
"ABT1-95 (other, dAb, Vκ, to IL-1α; also called dAb ABT1-95) VL: DIQMTQSPSSLSASVGDRVTITCRASQPIHGNLRWYQQKPGKAPKLLIYNISNLQSGVPSRFSGSGSGTDFTLTISSLQPEDFATYYCQQGYRWPVTFGQGTKVEIKR",MRC5 ND10,human IL-1α [1],150 nM
same,MRC5 ND50,human IL-1α [1],700 nM
same,Kd,human IL-1α [8],200 nM
same,Kd,human IL-1α [9],45 nM
same,koff,human IL-1α [9],0.022 s⁻¹
same,kon,human IL-1α [9],490000 M⁻¹ s⁻¹
"ABT2-108-620x/ABT1-95-15 huIgG1/K wt (bispecific antibody, V domains shown) VH: EVQLLESGGGLVQPGGSLRLSCAASGFTFAEESWMWVRQAPGKGLEWVSRIGQDGKNTYYREDVKGRFTISRDNSKNTLYLQMNSLRAEDTAVYYCAKYTGRIMGHHLFDYWGQGTLVTVSS VL: DIQMTQSPSSLSASVGDRVTITCRASQPIVRNLRWYQQKPGKAPKLLIYSSSYLEPGVPSRFSGSGSGTDFTLTISSLQPEDFATYHCQQGYRWPVTFGQGTKVEIKR",IL-1α IC50,human IL-1α [10],5 nM
same,IL-1β IC50,human IL-1β [11],0.04 nM
same,MRC-5 IL-1a inhibition assay EC50,human IL-1α [12],5.07 nM
ABT1-95-1 (other) DIQMTQSPSSLSASVGDRVTITCRASQPIHGNLRWYQQKPGKAPKLLIYNISNLQSGVPSRFSGSGSGTDFTLTISSLQPEDFATYHCQQGYRWPVTFGQGTKVEIKR,Kd,human IL-1α [8],40 nM
same,Kd,human IL-1α [3],20 to 42 nM
"ABT2-108-538x/ABT1-95-15 huIgG1/K wt (bispecific antibody, V domains shown, hu IgG1/K wt) VH: EVQLLESGGGLVQPGGSLRLSCAASGFTFADEGMMWVRQAPGKGLEWVSRITYSGKNTYYADSVKGRFTISRDNSKNTLYLQMNSLRAEDTAVYYCAKYTGRILGHHLFDYWGQGTLVTVSS VL: DIQMTQSPSSLSASVGDRVTITCRASQPIVRNLRWYQQKPGKAPKLLIYSSSYLEPGVPSRFSGSGSGTDFTLTISSLQPEDFATYHCQQGYRWPVTFGQGTKVEIKR",MRC5 IL-1α,human IL-1α [13],8 nM
same,MRC5 IL-1β,human IL-1β [14],0.042 nM
same,IC50,human IL-1β [15],0.071 nM
same,IC50,human IL-1α [16],0.54 nM
"ABT2-65-166/ABT1-95-A3 huIgG1/K wt (bispecific antibody, V domains shown, hu IgG1/K wt; also called 1-95-A3 / 2-65-166) VH: EVQLLESGGGLVQPGGSLRLSCAASGFTFEDYQMGWVRQAPGKGLEWVSSISAMGGRTYYADSVKGRFTISRDNSKNTLYLQMNSLRAEDTAVYYCAQNLVRLGRSRWMFDYWGQGTLVTVSS VL: DIQMTQSPSSLSASVGDRVTITCRASKPGVRNMRWYQQKPGKAPKLLIYSVSYLEPGVPSRFSGSGSGTDFTLTISSLQPEDFATYHCLQGYRWPPTFGQGTKVEIKR",MRC5 IL-1α,human IL-1α [13],0.017 nM
same,MRC5 IL-1β,human IL-1β [14],0.15 nM
same,IL-1α IC50,human IL-1α [10],0.026 nM and 0.0178 nM
same,IL-1β IC50,human IL-1β [11],0.17 nM
same,IC50,human IL-1β [15],0.709 nM
same,IC50,human IL-1α [16],0.083 nM
ABT2-65-17 (other) VH: EVQLLESGGGLVQPGGSLRLSCVASGFTFEDYQMGWVRQAPGKGLEWVSSISAMGNRTYYADSVKGRFTISRDDSKNTLYLQMNSLRAEDTAVYYCAQNLVRLGRSRWMFDYWGQGTLVTVSS,MRC5 ND50,human IL-1β [17],2 nM
ABT2-65-166 (other) VH: EVQLLESGGGLVQPGGSLRLSCAASGFTFEDYQMGWVRQAPGKGLEWVSSISAMGGRTYYADSVKGRFTISRDNSKNTLYLQMNSLRAEDTAVYYCAQNLVRLGRSRWMFDYWGQGTLVTVSS,MRC5 ND50,human IL-1β [17],4 nM
"IgG pairing ABT1-95-A2 with ABT2-65-166 (bispecific antibody, V domains shown, IgG; also called 1-95-A2 / 2-65-166) VH: EVQLLESGGGLVQPGGSLRLSCAASGFTFEDYQMGWVRQAPGKGLEWVSSISAMGGRTYYADSVKGRFTISRDNSKNTLYLQMNSLRAEDTAVYYCAQNLVRLGRSRWMFDYWGQGTLVTVSS VL: DIQMTQSPSSLSASVGDRVTITCRILQPPGRNLRWYQQKPGKAPKLLIYSKSFLEPGVPSRFSGSGSGTDFTLTISSLQPEDFATYHCQQGYRWPVTFGQGTKVEIKR",MRC5 IL-1α,human IL-1α [13],0.08 nM
same,MRC5 IL-1β,human IL-1β [14],0.121 nM
same,IC50,human IL-1β [15],0.073 nM
same,IC50,human IL-1α [16],0.067 nM
"ABT2-65-166/ABT1-95-A6 hu IgG1/K wt (bispecific antibody, V domains shown, hu IgG1/K wt; also called 1-95-A6 / 2-65-166) VH: EVQLLESGGGLVQPGGSLRLSCAASGFTFEDYQMGWVRQAPGKGLEWVSSISAMGGRTYYADSVKGRFTISRDNSKNTLYLQMNSLRAEDTAVYYCAQNLVRLGRSRWMFDYWGQGTLVTVSS VL: DIQMTQSPSSLSASVGDRVTITCRASKPGVRNMRWYQQKPGKAPKLLIYAKSYLEPGVPSRFSGSGSGTDFTLTISSLQPEDFATYHCKQGYRWPVQFGQGTKVEIKR",MRC5 IL-1α,human IL-1α [13],0.019 nM
same,MRC5 IL-1β,human IL-1β [14],0.207 nM
same,IL-1β IC50,human IL-1β [11],0.32 nM
same,IC50,human IL-1β [15],0.537 nM
same,IC50,human IL-1α [16],0.108 nM
"ABT1-86 (other, dAb, VH, to IL-1α) VH: EVQLLESGGGLVQPGGSLRLSCAASGFTFDRYIMAWVRQAPGKGLEWVSSITPSGAATYYADSVKGRFTISRDNSKNTLYLQMNSLRAEDTAVYYCAEEPADRYSTWTFDYWGQGTLVTVSS",Kd,human IL-1α [18],110 nM
same,koff,human IL-1α [18],0.09 s⁻¹
same,kon,human IL-1α [18],820000 M⁻¹ s⁻¹
same,MRC5 ND10,human IL-1α [1],< 200 nM
same,MRC5 ND50,human IL-1α [1],900 nM
"ABT1-98 (other, dAb, VH, to IL-1α; also called dAb ABT1-98) VH: EVQLLESGGGLVQPGGSLRLSCAASGFTFDGYIMSWVRQAPGKGLEWVSTISPLGSVTYYADSVKGRFTISRDNSKNTLYLQMNSLRAEDTAVYYCAKKGPWFDYWGQGTLVTVSS",MRC5 ND10,human IL-1α [1],10 nM
same,MRC5 ND50,human IL-1α [1],30 nM
same,Kd,human IL-1α [19],13 nM
same,koff,human IL-1α [19],0.027 s⁻¹
same,kon,human IL-1α [19],2e+06 M⁻¹ s⁻¹
"ABT1-95-2 (other, dAb, Vκ, to IL-1α) VL: DIQMTQSPSSLSASVGDRVTITCRASQPIHGNLRWYQQKPGKAPKLLIYSSSYLQSGVPSRFSGSGSGTDFTLTISSLQPEDFATYYCQQGYRWPVTFGQGTKVEIK",Kd,human IL-1α [8],40 nM
same,Kd,human IL-1α [3],32 to 42 nM
